Experimental findings from publication PMC13489962, “Small-molecule modulation of β-arrestins” (Nature, 2026) are described below.

Assay [1] relates to Gi-mediated inhibition of adenylyl cyclase (D2R, M2R). The assay is described as follows: GloSensor cAMP Gi activity assay at D2R or M2R. It counts as cell-based. As to conditions: modulators 50 μM, 15 min; PTX 100 ng/mL overnight; forskolin 2 μM. The procedure:
Gi-mediated inhibition of adenylyl cyclase was assessed using the GloSensor cAMP bioluminescence biosensor (Promega). HEK293 cells were transiently transfected with D2R or M2R together with the GloSensor cAMP reporter construct, using FuGENE 6 per the manufacturer’s protocol. Cells were seeded into poly-D-lysine-coated white clear-bottom 96-well plates at 60,000 cells per well and cultured for 24 h. GloSensor reagent was added per the manufacturer’s instructions and cells were equilibrated for 1 h at room temperature. Where indicated, pertussis toxin (PTX; 100 ng ml^−1) was applied overnight as a positive control for Gi blockade. Compounds (Cmpd-5, Cmpd-46 or Cmpd-64; 50 μM) or vehicle (DMSO) in HBSS supplemented with 20 mM HEPES (pH 7.4) and 0.05% BSA were applied for 15 min at room temperature. Cells were stimulated with forskolin (2 μM, 5 min), followed by concentration-response stimulation with quinpirole (D2R) or acetylcholine (M2R). Luminescence was recorded every 5 min over 30 min using a CLARIOstar microplate reader (BMG Labtech). Forskolin-stimulated cAMP, quantified at 10 min after agonist addition, was normalized to the maximal forskolin response per condition. Gi activity was derived from the inhibitory plateau and expressed as a percentage of the DMSO plus agonist control.

Assay [2] concerns the target phosphorylated β2V2R (pβ2V2R): N-terminal Flag-tagged T4 lysozyme fusion-β2V2R (β2AR residues 1–341 fused to V2R residues 328–372) (UniProt P07550).
The target in assay [3] is β2V2R fused to the ProLink tag (inactive portion of β-galactosidase), in U2OS PathHunter cells. The assay is described as follows: split reporter (BiFC, NanoBiT); PathHunter β-galactosidase enzyme fragment complementation in U2OS cells co-expressing βARR2 (enzyme acceptor) and β2V2R (ProLink); modulators or vehicle 30 min, then isoproterenol 60 min at 37 °C.

Chain of βARR2 fused to the enzyme acceptor (EA) portion of β-galactosidase, in U2OS PathHunter cells (P32121 whole entry, the tested form may be a part): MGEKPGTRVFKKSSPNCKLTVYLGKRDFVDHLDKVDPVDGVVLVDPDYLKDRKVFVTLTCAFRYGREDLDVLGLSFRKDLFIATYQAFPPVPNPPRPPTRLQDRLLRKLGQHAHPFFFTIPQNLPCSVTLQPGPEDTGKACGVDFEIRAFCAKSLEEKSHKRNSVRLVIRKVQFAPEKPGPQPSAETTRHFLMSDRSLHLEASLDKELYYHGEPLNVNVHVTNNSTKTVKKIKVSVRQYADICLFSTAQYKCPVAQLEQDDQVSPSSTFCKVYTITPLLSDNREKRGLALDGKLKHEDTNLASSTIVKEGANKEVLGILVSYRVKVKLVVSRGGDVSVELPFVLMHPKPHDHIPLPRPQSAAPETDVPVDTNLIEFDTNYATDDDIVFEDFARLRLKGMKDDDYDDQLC
Chain of β-arrestin2 (βARR2), rat, C terminus truncated at amino acid 394 (P29067 1-394): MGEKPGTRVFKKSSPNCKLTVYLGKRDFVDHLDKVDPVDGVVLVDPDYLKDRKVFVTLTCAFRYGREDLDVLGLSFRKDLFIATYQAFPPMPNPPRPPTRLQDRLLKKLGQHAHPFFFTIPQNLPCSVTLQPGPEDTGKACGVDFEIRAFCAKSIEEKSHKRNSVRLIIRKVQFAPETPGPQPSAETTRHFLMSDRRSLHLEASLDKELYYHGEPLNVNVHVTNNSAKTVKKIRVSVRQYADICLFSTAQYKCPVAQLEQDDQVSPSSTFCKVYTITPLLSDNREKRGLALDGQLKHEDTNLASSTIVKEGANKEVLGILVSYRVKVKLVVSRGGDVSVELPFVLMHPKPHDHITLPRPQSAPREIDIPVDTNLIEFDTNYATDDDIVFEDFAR

Take pertussis toxin: the “effect on agonist-induced, Gi-mediated cAMP reduction at D2R or M2R” value in assay [1] was “abolished this response entirely”.
In assay [2], “β-arrestin2 (βARR2), rat, C terminus truncated at amino acid 394 (from UniProt P29067 1-394) (domain or fragment)” registered a reduction of β-arrestin-mediated high-affinity [^3H]-Fen binding to pβ2V2R by Cmpd-5, Cmpd-46 and Cmpd-64, each (100 μM) of 40%.
In assay [3], “βARR2 fused to the enzyme acceptor (EA) portion of β-galactosidase, in U2OS PathHunter cells (from UniProt P32121 1-409) (natural protein)” gave a reduction of Emax of Iso-induced recruitment with 50 μM Cmpd-46 of 77.3% and a reduction of Emax of Iso-induced recruitment with 50 μM Cmpd-64 of 74.4%.
